Test results as given in patent US20170015742A1 (published 2017).
Positions count from the first letter of the chain named.

B1: CODV003 cross-over DVD-Ig (PR-1565044) (bispecific antibody, human IgG1, kappa, L234A L235A)
heavy: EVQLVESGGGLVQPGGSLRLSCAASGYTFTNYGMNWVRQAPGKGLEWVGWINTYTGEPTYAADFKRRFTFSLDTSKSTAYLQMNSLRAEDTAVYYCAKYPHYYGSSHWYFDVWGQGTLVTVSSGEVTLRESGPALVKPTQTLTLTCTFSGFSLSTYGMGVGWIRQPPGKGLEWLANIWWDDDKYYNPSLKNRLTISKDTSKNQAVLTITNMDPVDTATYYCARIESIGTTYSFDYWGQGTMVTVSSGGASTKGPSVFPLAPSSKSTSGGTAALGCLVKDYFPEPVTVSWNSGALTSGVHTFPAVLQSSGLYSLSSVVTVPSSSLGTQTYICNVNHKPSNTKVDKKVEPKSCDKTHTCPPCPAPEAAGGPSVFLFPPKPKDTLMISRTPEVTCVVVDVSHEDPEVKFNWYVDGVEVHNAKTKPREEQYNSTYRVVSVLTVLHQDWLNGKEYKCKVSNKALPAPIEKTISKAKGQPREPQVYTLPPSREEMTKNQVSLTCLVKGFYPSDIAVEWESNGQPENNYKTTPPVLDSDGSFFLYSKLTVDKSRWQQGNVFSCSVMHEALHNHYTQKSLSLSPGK
light: DFQLTQSPSSLSASVGDRVTITCERSSGDIGDSYVSWYQQKPGKAPKNVIYADDQRPSGVPSRFSGSGSGNSASLTISSLQPEDFATYFCQSYDINIDIVFGQGTKVEIKGGGSGGGDIQMTQSPSSLSASVGDRVTITCSASQDISNYLNWYQQKPGKAPKVLIYFTSSLHSGVPSRFSGSGSGTDFTLTISSLQPEDFATYYCQQYSTVPWTFGQGTKVEIKGGGSGRTVAAPSVFIFPPSDEQLKSGTASVVCLLNNFYPREAKVQWKVDNALQSGNSQESVTEQDSKDSTYSLSSTLTLSKADYEKHKVYACEVTHQGLSSPVTKSFNRGEC
B2: CODV017 cross-over DVD-Ig (PR-1571830) (bispecific antibody, human IgG1, kappa, L234A L235A)
heavy: DTVLTQSPATLSLSPGERATLSCRASESVSTHMHWYQQKPGQAPRLLIYGASNLESGVPARFSGSGSGTDFTLTISSLEPEDFAVYFCQQSWNDPFTFGQGTKLEIKGGGSGGGEFVLTQSPGTLSLSPGERATLSCERSSGDIGDSYVSWYQQKPGQAPRLVIYADDQRPSGIPDRFSGSGSGTDFTLTISRLEPEDFAVYYCQSYDINIDIVFGGGTKVEIKGGGSGASTKGPSVFPLAPSSKSTSGGTAALGCLVKDYFPEPVTVSWNSGALTSGVHTFPAVLQSSGLYSLSSVVTVPSSSLGTQTYICNVNHKPSNTKVDKKVEPKSCDKTHTCPPCPAPEAAGGPSVFLFPPKPKDTLMISRTPEVTCVVVDVSHEDPEVKFNWYVDGVEVHNAKTKPREEQYNSTYRVVSVLTVLHQDWLNGKEYKCKVSNKALPAPIEKTISKAKGQPREPQVYTLPPSREEMTKNQVSLTCLVKGFYPSDIAVEWESNGQPENNYKTTPPVLDSDGSFFLYSKLTVDKSRWQQGNVFSCSVMHEALHNAYTQKSLSLSPGK
light: EVTLRESGPALVKPTQTLTLTCTFSGFSLSTYGMGVGWIRQPPGKALEWLANIWWDDDKYYNPSLKNRLTISKDTSKNQVVLTMTNMDPVDTATYYCARIESIGTTYSFDYWGQGTMVTVSSGEVQLVQSGSELKKPGASVKVSCKASGYTFTNYGMYWVRQAPGQGLEWMGWINTETGKPTYADDFKGRFVFSLDTSVSTAYLQISSLKAEDTAVYYCARTNYYYRSYIFYFDYWGQGTMVTVSSGGRTVAAPSVFIFPPSDEQLKSGTASVVCLLNNFYPREAKVQWKVDNALQSGNSQESVTEQDSKDSTYSLSSTLTLSKADYEKHKVYACEVTHQGLSSPVTKSFNRGEC
B3: CODV018 cross-over DVD-Ig (PR-1571831) (bispecific antibody, human IgG1, kappa, L234A L235A)
heavy: EFVLTQSPGTLSLSPGERATLSCERSSGDIGDSYVSWYQQKPGQAPRLVIYADDQRPSGIPDRFSGSGSGTDFTLTISRLEPEDFAVYYCQSYDINIDIVFGGGTKVEIKGGGSGGGDTVLTQSPATLSLSPGERATLSCRASESVSTHMHWYQQKPGQAPRLLIYGASNLESGVPARFSGSGSGTDFTLTISSLEPEDFAVYFCQQSWNDPFTFGQGTKLEIKGGGSGASTKGPSVFPLAPSSKSTSGGTAALGCLVKDYFPEPVTVSWNSGALTSGVHTFPAVLQSSGLYSLSSVVTVPSSSLGTQTYICNVNHKPSNTKVDKKVEPKSCDKTHTCPPCPAPEAAGGPSVFLFPPKPKDTLMISRTPEVTCVVVDVSHEDPEVKFNWYVDGVEVHNAKTKPREEQYNSTYRVVSVLTVLHQDWLNGKEYKCKVSNKALPAPIEKTISKAKGQPREPQVYTLPPSREEMTKNQVSLTCLVKGFYPSDIAVEWESNGQPENNYKTTPPVLDSDGSFFLYSKLTVDKSRWQQGNVFSCSVMHEALHNAYTQKSLSLSPGK
light: EVQLVQSGSELKKPGASVKVSCKASGYTFTNYGMYWVRQAPGQGLEWMGWINTETGKPTYADDFKGRFVFSLDTSVSTAYLQISSLKAEDTAVYYCARTNYYYRSYIFYFDYWGQGTMVTVSSGEVTLRESGPALVKPTQTLTLTCTFSGFSLSTYGMGVGWIRQPPGKALEWLANIWWDDDKYYNPSLKNRLTISKDTSKNQVVLTMTNMDPVDTATYYCARIESIGTTYSFDYWGQGTMVTVSSGGRTVAAPSVFIFPPSDEQLKSGTASVVCLLNNFYPREAKVQWKVDNALQSGNSQESVTEQDSKDSTYSLSSTLTLSKADYEKHKVYACEVTHQGLSSPVTKSFNRGEC
B4: DVD3906 DVD-Ig (PR-1565035) (bispecific antibody, human IgG1, kappa, L234A L235A)
heavy: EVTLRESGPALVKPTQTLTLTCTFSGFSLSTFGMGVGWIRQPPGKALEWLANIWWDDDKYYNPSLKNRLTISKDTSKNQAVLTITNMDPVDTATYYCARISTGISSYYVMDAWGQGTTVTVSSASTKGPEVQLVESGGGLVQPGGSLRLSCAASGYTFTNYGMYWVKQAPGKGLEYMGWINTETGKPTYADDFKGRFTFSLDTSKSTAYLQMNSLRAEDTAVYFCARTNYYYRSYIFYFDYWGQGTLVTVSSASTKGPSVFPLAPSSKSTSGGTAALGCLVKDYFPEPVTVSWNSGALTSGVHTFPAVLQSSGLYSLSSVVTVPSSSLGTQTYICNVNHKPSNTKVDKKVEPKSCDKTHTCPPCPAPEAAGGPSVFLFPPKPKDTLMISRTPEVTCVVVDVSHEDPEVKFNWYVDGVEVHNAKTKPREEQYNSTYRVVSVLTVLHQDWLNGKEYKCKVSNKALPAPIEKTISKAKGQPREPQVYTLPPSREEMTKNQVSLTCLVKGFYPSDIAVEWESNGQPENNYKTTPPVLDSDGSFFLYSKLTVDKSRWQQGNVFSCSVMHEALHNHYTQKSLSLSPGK
light: DFQLTQSPSSLSASVGDRVTITCERSSGDIGDTYVSWYQQKPGKAPKNVIYGNDQRPSGVPSRFSGSGSGNSATLTISSLQPEDFATYFCQSYDSDIDIVFGQGTKVEIKGTVAAPSVFIFPPDTQLTQSPSSLSASVGDRVTISCRASESVSTHMHWYQQKPGKAPKLLIYGASNLESGVPSRFSGSGSGTDFTLTISSLQPEDFATYFCQQSWNDPFTFGQGTKVEIKRTVAAPSVFIFPPSDEQLKSGTASVVCLLNNFYPREAKVQWKVDNALQSGNSQESVTEQDSKDSTYSLSSTLTLSKADYEKHKVYACEVTHQGLSSPVTKSFNRGEC
B5: DVD3904 DVD-Ig (PR-1565031) (bispecific antibody, human IgG1, kappa, L234A L235A)
heavy: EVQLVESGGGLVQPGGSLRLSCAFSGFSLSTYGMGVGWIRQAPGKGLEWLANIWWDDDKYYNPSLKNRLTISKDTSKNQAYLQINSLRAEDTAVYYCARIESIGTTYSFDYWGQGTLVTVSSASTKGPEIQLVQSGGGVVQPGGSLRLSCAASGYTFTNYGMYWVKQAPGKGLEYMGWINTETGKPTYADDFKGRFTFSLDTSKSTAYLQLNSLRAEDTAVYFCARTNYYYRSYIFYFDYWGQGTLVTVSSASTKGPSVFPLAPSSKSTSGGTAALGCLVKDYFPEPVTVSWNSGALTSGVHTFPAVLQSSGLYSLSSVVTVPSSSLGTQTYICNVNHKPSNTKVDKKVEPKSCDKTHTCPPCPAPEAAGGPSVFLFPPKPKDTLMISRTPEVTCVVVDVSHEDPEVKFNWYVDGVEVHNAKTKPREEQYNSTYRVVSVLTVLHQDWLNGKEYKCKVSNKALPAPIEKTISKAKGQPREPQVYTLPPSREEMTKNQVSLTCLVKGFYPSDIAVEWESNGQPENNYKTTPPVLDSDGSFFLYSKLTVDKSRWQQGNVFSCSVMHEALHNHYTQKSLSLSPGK
light: DFQLTQSPSSLSASVGDRVTITCERSSGDIGDSYVSWYQQKPGKAPKNVIYADDQRPSGVPSRFSGSGSGNSASLTISSLQPEDFATYFCQSYDINIDIVFGQGTKVEIKGTVAAPSVFIFPPDTVLTQSPSTLSASPGERATISCRASESVSTHMHWYQQKPGQAPKLLIYGASNLESGVPSRFSGSRSGTDFTLTISSLQPEDFAVYFCQQSWNDPFTFGQGTKVEIKRTVAAPSVFIFPPSDEQLKSGTASVVCLLNNFYPREAKVQWKVDNALQSGNSQESVTEQDSKDSTYSLSSTLTLSKADYEKHKVYACEVTHQGLSSPVTKSFNRGEC
B6: DVD3905 DVD-Ig (PR-1565032) (bispecific antibody, human IgG1, kappa, L234A L235A)
heavy: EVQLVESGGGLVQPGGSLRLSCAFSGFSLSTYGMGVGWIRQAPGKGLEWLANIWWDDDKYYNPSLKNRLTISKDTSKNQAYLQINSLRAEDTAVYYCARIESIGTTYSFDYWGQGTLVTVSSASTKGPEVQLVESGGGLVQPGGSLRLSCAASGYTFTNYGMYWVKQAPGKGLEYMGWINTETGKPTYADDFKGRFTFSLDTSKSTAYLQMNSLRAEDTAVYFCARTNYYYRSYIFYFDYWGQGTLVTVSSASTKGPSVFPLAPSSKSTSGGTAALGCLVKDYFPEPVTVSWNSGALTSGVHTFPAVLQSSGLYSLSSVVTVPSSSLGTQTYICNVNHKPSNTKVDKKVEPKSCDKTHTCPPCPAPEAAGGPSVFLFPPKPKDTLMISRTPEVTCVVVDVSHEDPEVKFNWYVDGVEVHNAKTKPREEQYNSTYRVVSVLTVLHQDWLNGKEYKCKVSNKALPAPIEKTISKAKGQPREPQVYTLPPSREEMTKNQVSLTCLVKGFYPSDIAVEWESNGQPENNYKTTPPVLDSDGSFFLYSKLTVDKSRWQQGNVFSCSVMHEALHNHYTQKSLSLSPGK
light: B4 light with T33S, G52A, N53D, T74S, S95I, D96N
B7: CODV013 cross-over DVD-Ig (PR-1571825) (bispecific antibody, human IgG1, kappa, L234A L235A)
heavy: EVQLVQSGSELKKPGASVKVSCKASGYTFTNYGMYWVRQAPGQGLEWMGWINTETGKPTYADDFKGRFVFSLDTSVSTAYLQISSLKAEDTAVYYCARTNYYYRSYIFYFDYWGQGTMVTVSSGGGGSGGGEFVLTQSPGTLSLSPGERATLSCERSSGDIGDSYVSWYQQKPGQAPRLVIYADDQRPSGIPDRFSGSGSGTDFTLTISRLEPEDFAVYYCQSYDINIDIVFGGGTKVEIKGGSASTKGPSVFPLAPSSKSTSGGTAALGCLVKDYFPEPVTVSWNSGALTSGVHTFPAVLQSSGLYSLSSVVTVPSSSLGTQTYICNVNHKPSNTKVDKKVEPKSCDKTHTCPPCPAPEAAGGPSVFLFPPKPKDTLMISRTPEVTCVVVDVSHEDPEVKFNWYVDGVEVHNAKTKPREEQYNSTYRVVSVLTVLHQDWLNGKEYKCKVSNKALPAPIEKTISKAKGQPREPQVYTLPPSREEMTKNQVSLTCLVKGFYPSDIAVEWESNGQPENNYKTTPPVLDSDGSFFLYSKLTVDKSRWQQGNVFSCSVMHEALHNAYTQKSLSLSPGK
light: EVTLRESGPALVKPTQTLTLTCTFSGFSLSTYGMGVGWIRQPPGKALEWLANIWWDDDKYYNPSLKNRLTISKDTSKNQVVLTMTNMDPVDTATYYCARIESIGTTYSFDYWGQGTMVTVSSGGGGSGGGDTVLTQSPATLSLSPGERATLSCRASESVSTHMHWYQQKPGQAPRLLIYGASNLESGVPARFSGSGSGTDFTLTISSLEPEDFAVYFCQQSWNDPFTFGQGTKLEIKGGGSGRTVAAPSVFIFPPSDEQLKSGTASVVCLLNNFYPREAKVQWKVDNALQSGNSQESVTEQDSKDSTYSLSSTLTLSKADYEKHKVYACEVTHQGLSSPVTKSFNRGEC
B8: CODV014 cross-over DVD-Ig (PR-1571826) (bispecific antibody, human IgG1, kappa, L234A L235A)
heavy: EVQLVQSGSELKKPGASVKVSCKASGYTFTNYGMYWVRQAPGQGLEWMGWINTETGKPTYADDFKGRFVFSLDTSVSTAYLQISSLKAEDTAVYYCARTNYYYRSYIFYFDYWGQGTMVTVSSGGGGSEFVLTQSPGTLSLSPGERATLSCERSSGDIGDSYVSWYQQKPGQAPRLVIYADDQRPSGIPDRFSGSGSGTDFTLTISRLEPEDFAVYYCQSYDINIDIVFGGGTKVEIKGGSASTKGPSVFPLAPSSKSTSGGTAALGCLVKDYFPEPVTVSWNSGALTSGVHTFPAVLQSSGLYSLSSVVTVPSSSLGTQTYICNVNHKPSNTKVDKKVEPKSCDKTHTCPPCPAPEAAGGPSVFLFPPKPKDTLMISRTPEVTCVVVDVSHEDPEVKFNWYVDGVEVHNAKTKPREEQYNSTYRVVSVLTVLHQDWLNGKEYKCKVSNKALPAPIEKTISKAKGQPREPQVYTLPPSREEMTKNQVSLTCLVKGFYPSDIAVEWESNGQPENNYKTTPPVLDSDGSFFLYSKLTVDKSRWQQGNVFSCSVMHEALHNAYTQKSLSLSPGK
light: B7 light
B9: CODV021 cross-over DVD-Ig (PR-1577053) (bispecific antibody, human IgG1, kappa, L234A L235A)
heavy: EVQLVQSGSELKKPGASVKVSCKASGYTFTNYGMYWVRQAPGQGLEWMGWINTETGKPTYADDFKGRFVFSLDTSVSTAYLQISSLKAEDTAVYYCARTNYYYRSYIFYFDYWGQGTMVTVSSGGGGSGGGEFVLTQSPGTLSLSPGERATLSCERSSGDIGESYVSWYQQKPGQAPRLVIYADDQRPSGIPDRFSGSGSGTDFTLTISRLEPEDFAVYYCQSYDINIDIVFGGGTKVEIKGGGSGASTKGPSVFPLAPSSKSTSGGTAALGCLVKDYFPEPVTVSWNSGALTSGVHTFPAVLQSSGLYSLSSVVTVPSSSLGTQTYICNVNHKPSNTKVDKKVEPKSCDKTHTCPPCPAPEAAGGPSVFLFPPKPKDTLMISRTPEVTCVVVDVSHEDPEVKFNWYVDGVEVHNAKTKPREEQYNSTYRVVSVLTVLHQDWLNGKEYKCKVSNKALPAPIEKTISKAKGQPREPQVYTLPPSREEMTKNQVSLTCLVKGFYPSDIAVEWESNGQPENNYKTTPPVLDSDGSFFLYSKLTVDKSRWQQGNVFSCSVMHEALHNAYTQKSLSLSPGK
light: EVTLRESGPALVKPTQTLTLTCTFSGFSLSTYGMGVGWIRQPPGKALEWLANIWWDDDKYYNPSLKNRLTISKDTSKNQVVLTMTNMDPVDTATYYCARIESIGTTYSFDYWGQGTMVTVSSGGGGSGGGDTVLTQSPATLSLSPGERATLSCRASESVSTHMHWYQQKPGQAPRLLIYGASNLESGVPARFSGSGSGTDFTLTISSLEPEDFAVYFCQQSWNDPFTFGQGTKLEIKGGSRTVAAPSVFIFPPSDEQLKSGTASVVCLLNNFYPREAKVQWKVDNALQSGNSQESVTEQDSKDSTYSLSSTLTLSKADYEKHKVYACEVTHQGLSSPVTKSFNRGEC
B10: CODV022 cross-over DVD-Ig (PR-1577056) (bispecific antibody, human IgG1, kappa, L234A L235A)
heavy: B9 heavy
light: EVTLRESGPALVKPTQTLTLTCTFSGFSLSTYGMGVGWIRQPPGKALEWLANIWWDDDKYYNPSLKNRLTISKDTSKNQVVLTMTNMDPVDTATYYCARIESIGTTYSFDYWGQGTMVTVSSGGGGSDTVLTQSPATLSLSPGERATLSCRASESVSTHMHWYQQKPGQAPRLLIYGASNLESGVPARFSGSGSGTDFTLTISSLEPEDFAVYFCQQSWNDPFTFGQGTKLEIKGGSRTVAAPSVFIFPPSDEQLKSGTASVVCLLNNFYPREAKVQWKVDNALQSGNSQESVTEQDSKDSTYSLSSTLTLSKADYEKHKVYACEVTHQGLSSPVTKSFNRGEC
B11: CODV004 cross-over DVD-Ig (PR-1565051) (bispecific antibody, human IgG1, kappa, L234A L235A)
heavy: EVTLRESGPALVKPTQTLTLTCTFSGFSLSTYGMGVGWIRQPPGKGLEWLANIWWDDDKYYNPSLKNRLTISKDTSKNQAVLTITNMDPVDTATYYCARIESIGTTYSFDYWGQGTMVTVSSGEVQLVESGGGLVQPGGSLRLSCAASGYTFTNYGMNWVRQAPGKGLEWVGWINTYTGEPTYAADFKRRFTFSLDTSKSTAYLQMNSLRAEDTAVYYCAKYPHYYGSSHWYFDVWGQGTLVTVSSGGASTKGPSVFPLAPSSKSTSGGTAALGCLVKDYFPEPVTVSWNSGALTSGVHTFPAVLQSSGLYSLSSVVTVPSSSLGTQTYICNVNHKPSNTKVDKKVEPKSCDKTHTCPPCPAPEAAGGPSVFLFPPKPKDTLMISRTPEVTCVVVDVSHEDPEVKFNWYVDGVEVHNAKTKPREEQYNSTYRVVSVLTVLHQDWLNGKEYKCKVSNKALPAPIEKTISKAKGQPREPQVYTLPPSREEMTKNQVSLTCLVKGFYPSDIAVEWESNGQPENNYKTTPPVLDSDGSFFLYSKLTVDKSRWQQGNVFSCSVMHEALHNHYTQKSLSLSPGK
light: DIQMTQSPSSLSASVGDRVTITCSASQDISNYLNWYQQKPGKAPKVLIYFTSSLHSGVPSRFSGSGSGTDFTLTISSLQPEDFATYYCQQYSTVPWTFGQGTKVEIKGGGSGGGDFQLTQSPSSLSASVGDRVTITCERSSGDIGDSYVSWYQQKPGKAPKNVIYADDQRPSGVPSRFSGSGSGNSASLTISSLQPEDFATYFCQSYDINIDIVFGQGTKVEIKGGGSGRTVAAPSVFIFPPSDEQLKSGTASVVCLLNNFYPREAKVQWKVDNALQSGNSQESVTEQDSKDSTYSLSSTLTLSKADYEKHKVYACEVTHQGLSSPVTKSFNRGEC

What follows are binders tested against recombinant human PDGF-BB (human, UniProt P01127 82-190) (assay: cell-based or functional assay).
Sequence of recombinant human PDGF-BB (P01127 82-190 limits assumed): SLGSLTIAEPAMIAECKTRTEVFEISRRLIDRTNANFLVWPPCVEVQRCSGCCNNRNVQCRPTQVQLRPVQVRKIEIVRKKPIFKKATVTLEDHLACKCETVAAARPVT

B1 and B2 cannot be ordered by “NIH-3T3 hPDGF-BB Potency IC50” value: > 5 nM for the first, > 5 nM for the second.

B3 and B4 cannot be ordered by “NIH-3T3 hPDGF-BB Potency IC50” value: > 5 nM for the first, > 5 nM for the second.

B5 and B6 cannot be ordered by “NIH-3T3 hPDGF-BB Potency IC50” value: > 5 nM for the first, > 5 nM for the second.

Going from B7 to B8, the “NIH-3T3 hPDGF-BB Potency IC50” value rises from 0.11 nM to 0.469 nM (4.3-fold).

B9 and B10 are within 1.5-fold of each other in “NIH-3T3 hPDGF-BB Potency IC50” value: 0.056 nM for the first, 0.059 nM for the second.

For B11, the “NIH-3T3 hPDGF-BB Potency IC50” value was > 5 nM.
